# According to US20060116325A1, “Methods and compositions for inhibiting hiv-coreceptor interactions” (priority 2001, published 2006):
# Tested on: HIV-1JRFL
# Assay: HIV-1JRFL infection of monocyte-derived macrophages, p24 ELISA
# Assay type: cell-based
# Settings: peptide 1 hr before virus, p24 after 72 hr; FIG. 3
# Protocol: Monocyte-derived macrophages were treated with the designated concentrations of the indicated peptide for a period of 1 hr prior to addition of HIV-1JRFL. After 2 hr, cells were washed, and viral replication was determined after 72 hr by p24 analysis. Results are representative of 4 independent experiments.
# PBMCs were obtained from whole blood of normal donors and isolated by Ficoll-Paque Plus (Pharmacia Biotech, Piscataway, N.J.) density gradient centrifugation, and plated at a cell density of 2×10^6 cells/ml. Monocyte-derived macrophages (MDM) were generated from adherent human peripheral blood mononuclear cells by culture for 7 days with M-CSF (100 ng/ml). […] After 2 hr, cells were washed, and cultured for additional 48-72 hr, followed by analysis of HIV replication as determined by quantification of accumulated p24 in the supernatant. The production of p24 was determined by conventional sandwich ELISA, using ELISA plates pre-coated with capture anti-p24 antibodies provided by the AIDS Vaccine Program (SAIC Frederick, NCI-FCRDC, Frederick, Md.). The captured p24 antigen was detected using rabbit anti-HIV-1 anti-p24 antibody, and a secondary goat anti-rabbit IgG (peroxidase-labeled) antibody. The captured p24 protein was detected using a 3,3′,5,5′-tetramethylbenzidine and hydrogen peroxide detection system (KPL Laboratories, Gaithersburg, Md.). […]
molecule,measurement,value
macrophage inflammatory protein-1β (protein) APMGSDPPTACCFSYTARKLPRNFVVDYYETSSLCSQPAVVFQTKRSKQVCADPSESWVQEYVYDLELN,inhibition of HIV-1JRFL infection of monocyte-derived macrophages (p24),comparable inhibitory activities
